We go through four molecules from US20050100554A1 (published 2005).

B1: Human Papillomavirus 1a E2 (other)
chain: MENLSSRLDLLQEQLMNLYEQDSKLIEDQIKQWNLIRQEQVLFHFARKNGVMRIGLQAVPSLASSQEKAKTAIEMVLHLESLKDSPYGTEDWSLQDTSRELFLAPPAGTFKKSGSTLEVTYDNNPDNQTRHTIWNHVYYQNGDDVWRKVSSGVDAVGVYYLEHDGYKNYYVLFAEEASKYSTTGQYAVNYRGKRFTNVMSSTSSPRAAGAPAVHSDYPTLSESDTAQQSTSIDYTELPGQGETSQVRQRQQKTPVRRRPYGRRRSRSPRGGGRREGESTPSRTPGSVPSARDVGSIHTTPQKGHSSRLRRLLQEAWDPPVVCVKGGANQLKCLRYRLKASTQVDFDSISTTWHWTDRKNTERIGSARMLVKFIDEAQREKFLERVALPRSVSVFLGQFNGS
notes: also called HPV 1a E2; cbe_251917

The target in one test is T1, ribosomal protein S10 (human, UniProt P46783 1-165).
T1 construct: also called RPS10; cbe_2826346
Nature of the test: Y2H; INT ID 412.

The target of test [1] is T2, hypothetical protein FLJ20259 (human, UniProt Q2TAL8 1-776).
T2 construct: also called cbe_1469980
T2 sequence: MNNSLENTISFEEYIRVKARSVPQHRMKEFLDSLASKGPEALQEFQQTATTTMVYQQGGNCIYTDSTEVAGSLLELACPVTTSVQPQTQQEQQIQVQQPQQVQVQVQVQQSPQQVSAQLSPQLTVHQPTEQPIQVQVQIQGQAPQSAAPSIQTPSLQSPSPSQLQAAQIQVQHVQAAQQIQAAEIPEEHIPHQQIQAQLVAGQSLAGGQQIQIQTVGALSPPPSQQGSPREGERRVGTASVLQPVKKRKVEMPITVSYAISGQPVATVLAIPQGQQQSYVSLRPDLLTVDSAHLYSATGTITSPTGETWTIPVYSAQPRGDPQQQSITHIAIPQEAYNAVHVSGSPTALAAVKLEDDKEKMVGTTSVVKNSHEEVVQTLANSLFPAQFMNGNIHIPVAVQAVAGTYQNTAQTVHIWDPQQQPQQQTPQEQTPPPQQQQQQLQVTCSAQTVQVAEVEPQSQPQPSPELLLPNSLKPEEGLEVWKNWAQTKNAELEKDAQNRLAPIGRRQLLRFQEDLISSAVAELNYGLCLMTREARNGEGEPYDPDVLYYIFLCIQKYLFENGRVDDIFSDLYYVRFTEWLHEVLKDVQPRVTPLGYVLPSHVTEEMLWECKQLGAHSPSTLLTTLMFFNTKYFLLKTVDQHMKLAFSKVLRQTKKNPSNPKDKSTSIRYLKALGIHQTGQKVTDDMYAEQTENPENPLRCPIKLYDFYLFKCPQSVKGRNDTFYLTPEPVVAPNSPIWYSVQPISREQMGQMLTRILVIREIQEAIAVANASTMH
Briefly: Y2H; INT ID 411.

Test [2] addresses T3, testis-specific protein NYD-TSP1 (human, UniProt Q9BXG8 1-430).
T3 construct: also called Hs.98226; cbe_3826540
T3 sequence: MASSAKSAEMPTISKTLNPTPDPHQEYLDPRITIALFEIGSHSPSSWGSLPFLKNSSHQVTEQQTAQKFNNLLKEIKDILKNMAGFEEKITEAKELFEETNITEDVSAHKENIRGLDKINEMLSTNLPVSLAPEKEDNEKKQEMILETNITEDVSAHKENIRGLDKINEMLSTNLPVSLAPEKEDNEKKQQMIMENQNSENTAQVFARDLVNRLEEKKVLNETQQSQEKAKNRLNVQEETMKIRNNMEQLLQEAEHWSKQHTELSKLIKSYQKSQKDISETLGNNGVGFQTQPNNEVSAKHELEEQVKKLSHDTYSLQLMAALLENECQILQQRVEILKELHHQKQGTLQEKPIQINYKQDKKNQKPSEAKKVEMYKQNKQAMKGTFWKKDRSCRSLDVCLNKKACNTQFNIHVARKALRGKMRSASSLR
Nature of the test: Y2H; INT ID 418.

Test [3] has as its target T4, ankylosis, progressive homolog (mouse) (human, UniProt Q9HCJ1 1-492).
T4 construct: also called ANKH; cbe_3641816
Briefly: Y2H; INT ID 417.

Another test addresses T5, GNB2L1 (human, UniProt P63244 1-317).
T5 construct: also called cbe_4269834
Briefly: Y2H; INT ID 420.

The target in test [4] is T6, Human Papillomavirus 1a L2 (Human Papillomavirus 1a, UniProt P03105 1-507).
T6 construct: also called HPV 1a L2; cbe_252041
T6 sequence: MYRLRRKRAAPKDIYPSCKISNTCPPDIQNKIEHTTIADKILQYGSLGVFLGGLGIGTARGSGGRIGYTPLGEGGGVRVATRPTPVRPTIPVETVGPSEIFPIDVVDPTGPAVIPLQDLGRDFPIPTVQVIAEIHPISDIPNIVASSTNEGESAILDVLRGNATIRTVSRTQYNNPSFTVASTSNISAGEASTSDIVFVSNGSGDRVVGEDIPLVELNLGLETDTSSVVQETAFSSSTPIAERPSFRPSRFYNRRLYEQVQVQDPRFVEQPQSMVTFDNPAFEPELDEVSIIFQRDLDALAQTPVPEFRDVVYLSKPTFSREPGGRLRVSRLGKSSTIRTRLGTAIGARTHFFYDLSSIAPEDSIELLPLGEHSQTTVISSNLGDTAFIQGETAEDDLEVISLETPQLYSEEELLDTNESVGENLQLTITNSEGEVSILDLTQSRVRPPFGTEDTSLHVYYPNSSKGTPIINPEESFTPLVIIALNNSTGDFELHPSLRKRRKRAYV
Nature of the test: Y2H; INT ID 446.

Test [5] deals with T6, Human Papillomavirus 1a L2. Briefly: Y2H; INT ID 451.
The target of test [6] is B1. Nature of the test: Y2H; INT ID 416.

T4 sequence (Q9HCJ1 whole entry): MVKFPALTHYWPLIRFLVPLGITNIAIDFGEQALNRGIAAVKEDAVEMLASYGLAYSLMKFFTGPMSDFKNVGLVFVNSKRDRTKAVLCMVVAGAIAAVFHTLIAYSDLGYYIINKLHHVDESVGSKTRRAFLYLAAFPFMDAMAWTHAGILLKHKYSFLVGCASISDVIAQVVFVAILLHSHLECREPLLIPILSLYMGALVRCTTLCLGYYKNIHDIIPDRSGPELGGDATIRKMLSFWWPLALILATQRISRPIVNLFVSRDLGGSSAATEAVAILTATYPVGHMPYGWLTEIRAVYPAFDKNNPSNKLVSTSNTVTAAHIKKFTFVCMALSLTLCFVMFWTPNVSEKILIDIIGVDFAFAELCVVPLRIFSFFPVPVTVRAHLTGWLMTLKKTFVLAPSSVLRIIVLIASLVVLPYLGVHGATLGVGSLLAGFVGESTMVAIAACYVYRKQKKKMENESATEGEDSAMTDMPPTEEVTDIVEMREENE

With B1, the binding result (in the test with ribosomal protein S10; in test [1]; in test [2]; in test [3]; with GNB2L1) was “binds” throughout.

B2: Prey1053670 (other)
chain: MSSDERKAFLQFTTGCSTLPPGGLANLHPRLTVVRKVDATDASYPSVNTCVHYLKLPEYSSEEIMRERLLAATMEKGFHLN
notes: also called Homo sapiens, Similar to CG5604 gene product, clone MGC:11330; cbe_3606990
Regarding B2, the binding result in test [4] is “binds”.

B3: RIL (other)
chain: MPHSVTLRGPSPWGFRLVGGRDFSAPLTISRVHAGSKAALAALCPGDLIQAINGESTELMTHLEAQNRIKGCHDHLTLSVSRPEGRSWPSAPDDSKAQAHRIHIDPEIQDGSPTTSRRPSGTGTGPEDGRPSLGSPYGQPPRFPVPHNGSSEATLPAQMSTLHVSPPPSADPARGLPRSRDCRVDLGSEVYRMLREPAEPVAAEPKQSGSFRYLQGMLEAGEGGDWPGPGGPRNLKPTASKLGAPLSGLQGLPECTRCGHGIVGTIVKARDKLYHPECFMCSDCGLNLKQRGYFFLDERLYCESHAKARVKPPEGYDVVAVYPNAKVELV
notes: also called cbe_4269628
On to B3, for which the binding result in test [5] is “binds”.

B4: eukaryotic translation initiation factor 2B, subunit 2 beta, 39 kDa (other)
chain: MPGSAAKGSELSERIESFVETLKRGGGPRSSEEMARETLGLLRQIITDHRWSNAGELMELIRREGRRMTAAQPSETTVGNMVRRVLKIIREEYGRLHGRSDESDQQESLHKLLTSGGLNEDFSFHYAQLQSNIIEAINELLVELEGTMENIAAQALEHIHSNEVIMTIGFSRTVEAFLKEAARKRKFHVIVAECAPFCQGHEMAVNLSKAGIETTVMTDAAIFAVMSRVNKVIIGTKTILANGALRAVTGTHTLALAAKHHSTPLIVCAPMFKLSPQFPNEEDSFHKFVAPEEVLPFTEGDILEKVSVHCPVFDYVPPELITLFISNIGGNAPSYIYRLMSELYHPDDHVL
notes: also called EIF2B2; cbe_3625721
On to B4, for which the binding result in test [6] was “binds”.
